Measurements: PMC11139964, “L-serine deficiency: on the properties of the Asn133Ser variant of human phosphoserine phosphatase” (Scientific Reports, 2024)
Where a chain is given by its changes, count along the chain named. Numbers in names are those of the source.

B1: human phosphoserine phosphatase (PSP) (Homo sapiens) (protein)
chain: MVSHSELRKLFYSADAVCFDVDSTVIREEGIDELAKICGVEDAVSEMTRRAMGGAVPFKAALTERLALIQPSREQVQRLIAEQPPHLTPGIRELVSRLQERNVQVFLISGGFRSIVEHVASKLNIPATNVFANRLKFYFNGEYAGFDETQPTAESGGKGKVIKLLKEKFHFKKIIMIGDGATDMEACPPADAFIGFGGNVIRQQVKDNAKWYITDFVELLGELEE
notes: EC 3.1.3.3
B2: human phosphoserine phosphatase (PSP) (Homo sapiens; N133S) (protein)
chain: B1 chain with N133S
notes: EC 3.1.3.3
B3: human phosphoserine phosphatase (PSP), wild-type (enzyme)
chain: SHSELRKLFYSADAVCFDVDSTVIREEGIDELAKICGVEDAVSEMTRRAMGGAVPFKAALTERLALIQPSREQVQRLIAEQPPHLTPGIRELVSRLQERNVQVFLISGGFRSIVEHVASKLNIPATNVFANRLKFYFNGEYAGFDETQPTAESGGKGKVIKLLKEKFHFKKIIMIGDGATDMEACPPADAFIGFGGNVIRQQVKDNAKWYITDFVELLGELEE
notes: phosphoserine phosphatase (PSP), human, EC 3.1.3.3; gene cloned in the NdeI/BamHI sites of pET28a; also called wt PSP; wild-type PSP; source: E. coli BL21(DE3), purified (published procedure)
B4: Asn133Ser variant of human phosphoserine phosphatase (PSP) (enzyme)
chain: B3 chain with N131S
notes: phosphoserine phosphatase (PSP), human, EC 3.1.3.3, with the patients' missense variant c.398A > G p.(Asn133Ser); mutated pET28a plasmid prepared by GenScript; Natural variant found in patients and in gnomAD; Same construct as m1 apart from the substitution; also called Asn133Ser PSP; N133S PSP; source: E. coli BL21(DE3), purified (> 90% purity, published procedure)

What was measured:
[1] = biological target: T1, human phosphoserine phosphatase (PSP) (Homo sapiens, UniProt P78330, N133S); assay: PNP-coupled phosphate release assay (MESG, […] nm); format: biochemical; conditions: read-out: Asn133Ser
T1 construct: gene PSPH; EC 3.1.3.3
T1 sequence (P78330 1-225 N133S): B1 chain with N133S

[2] = biological target: T2, human phosphoserine phosphatase (PSP) (Homo sapiens, UniProt P78330); assay: PNP-coupled phosphate release assay (MESG, […] nm); format: biochemical; conditions: read-out: wild-type
T2 construct: gene PSPH; EC 3.1.3.3
T2 sequence (P78330 1-225): B1 chain

[3] = substrate: N[C@@H](COP(=O)(O)O)C(=O)O; assay: purified protein; format: biochemical, Homo sapiens; conditions: 50 mM HEPES, 100 mM KCl, 3 mM MgCl2, pH 7.0, 37 °C, 170 μM acetyl-CoA in coupling system
[4] = biological target: the molecule itself; assay: SEC; Superdex 75 Increase 5/150 GL, 50 mM HEPES pH 7.0, 100 mM KCl, room temperature, protein loaded at 10 uM; apparent mass from a calibration curve; monomer-dimer

Molecule | Km [3] [µM] | kcat [3] [s⁻¹] | kcat/Km [3] [M⁻¹ s⁻¹] | stoichiometry N [4] | also measured
N[C@@H](CO)C(=O)O [L-serine] | – | – | – | – | IC50 [1]: 250 ± 25 µM; IC50 [2]: 290 ± 20 µM
B1 | 42 ± 13 | 38 ± 3 | 900000 | – | –
B2 | 31 ± 5 | 28 ± 1 | 900000 | – | –
B3 | – | – | – | 2 | –
B4 | – | – | – | 2 | –
